Results reported in the domain aggregation screens of Martell et al. (2025).

Experiment: soluble fraction after stress (log2 fold change); higher = more stays soluble; pooled small domains, quantitative proteomics
Conditions: stress: 50 degC
Method in brief: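 The measure of aggregation propensity here is the base-two logarithm of the fold change in the soluble amount of each protein after stress. A higher value means more of that protein stays in solution. Stress was applied at 50°C to pooled libraries of small protein domains, read out by high-throughput quantitative proteomics.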

| Sequence | soluble fraction (log2) |
| --- | --- |
| HMAQISDEGLLRGLIVEMFEANPAVVEELLGGRDRKKGFVIGQIMKKTKGMANPALLDQLFYEELEKL | -0.867 |
| HMQTYTYYIAKNDISIGQKITPDMLIEKQVNLGDSKDRYLSREQLETGKYIAVRQIPAGELISSASANE | 0.157 |
| HMAESSLPKMPRDESKYIYHSVQPGETVYSLSKRYSVSESDIVKSNPGIDITKLSLGLEVAIPRI | 0.354 |
| HMEPVQPVMYSEFIESVERGEVVEATIQGDKIIATDRSGNRYTVVGSAKDPQLVGQLLERNVAFKFVEE | 0.00245 |
| HMAGPAGASEVANARDGDDETPLHMAARGGYPGIVRMLLAAGAKADAKSAAGLFPWNYAEDGSELHALLPR | 0.0684 |
| HMNLSNVVIRKVQEMILSGELQEGDKLPPEREMTQRLGIGRPALREGLKSLEMLGLVERRHGLGNFIINKV | -0.783 |
| HMEGSRASMDGQVPGKTSYLEWLARQPAQRQDQVLGAERGRLFRAGEIDLADMFTDKGEWISLERLKQLS | 0.221 |
| HMPPSQRVNRILSLAGITSRRKADEYILEGRVTVNGEVLKEPGAKAVWGTDDIRVDGKPIPALS | 0.1 |
| HMDKEVMEAVLRILYDDDFNPDQRDAILYFFVQELDQRTISEITGAKIGTVKKRIHDGLKKLRQKLAKEDL | -1.36 |
| HMVEVTTDEITRPGAMVSGSVTFSDGVKAIWLIDEYGRPGLEPETPGYQPSESDLSEFEKHLRALLQ | 0.0647 |
| HMGTGADQVSWKTGDKVTHKKWGEGTVVKVSGSGNDKELDIAFPQQGVKRLLASFAPIKKVT | 0.168 |
| HMEKRIIMLEELKKQVYEANMELPRRGLITYTWGNVSGIDRESGNFVIKPSGVDYDKLKPEDMVVMDL | -0.0887 |
| HMQDNLKKYMDKLSQRDAELIVYKYLWNMSEKEISEMFHIKQEQVHVYVGRAKKRLFKIIKKEME | -0.025 |
| HMPAYYQKEAVLDGRASVFAYERDPSSWYFKQLIPGTKKYRTKKIQGATTLEQAKSQALDIALGLRDEP | 0.0201 |
| HMYVYEPGEFAVRGSILDVYSYASEFPYRIDFFGDDVESIRTFEVQTQLSKEAKDRVSIVPDTEQ | -0.181 |
| HMKNSAAKETILAFLKKNGGELFTQMQIIEKFQKMIPAPVLRITLEELLNKGQVEITSKGKYYLSVKGS | -0.587 |
| HMSNETLFEFFEKNISQLTPTLVDNINRSLAVHSKKNVKLAIMIAAKSNVRNWNYISAILNRWEKE | -2.21 |
| HMETYNLDVGDSAVLQYQNVSRISVGNPDVLDAIPLDKSQILLTGKATGGAALIVWDSKGMHMEKVMVHPA | -0.156 |
| HMDIGNKIKELRTEQKMTQSDLAERLGVTKSSISSYENGSRLPSYDILLKIARIFKVSTDILLG | 0.514 |
| HMQKTPFEIMTIYKDQILEMLGKDLTATEISIVLKKKGEKVHPREIRKFQLQHYEEVQDMRKKWRE | -1.16 |
| HMKIDEVSFAYIERTLFSMLGKLPTPVNKVIATIGEEKKETIWEVIRFLESENKLITNEDGTLQL | -1.55 |
| HMADTSPEGVQKLIKAFEQFGVSKDDIEGFIQRRVDAITPANVVSLRKIFTSLRDGMSSAKDWFKGA | 0.00107 |
| HMAEATATVTASEMVVRSGPSSSYSVLGSLEKGTVVTVLAASDGIAKISYKGNTGYARIVDMELNSA | -0.0414 |

| Sequence | soluble fraction (log2) |
| --- | --- |
| HMSEPQEISYSDFIEQVNRNEIRQVEFDGQHEYLTVIRKDTSRFKVIIPAPDPRLLDDLMEHDVEIVGKE | 0.0895 |
| HMSSEYARFFSGNYYEVLGVAKNASYDEIKAAWKKLVKEYHPDLHPQRQEEFTKIIQKINEAYEYFKKMH | -0.0398 |
| HMLKREDEVIVVAGKDKGKRGTITQLVGDDRVIVAGVNMVKRHTKPNPNLGQPGGIVEREASLHISNV | 0.296 |
| HMVNAVKFAIEKMPYKYSSLLTLKYVMGYSGKEIAEITGLSETNVRQQLLKGRKLLESMLEE | -2.43 |
| HMTLYQIGDKVVHPMHGAGVIDSVVQRKVSGQVQEFYLLKLSVGNMVVMVPTDNTGEIGMRP | -1.01 |
| HMGSKEQELVILNNILERQLQAINLQKSAAGPMVNLRNVHNTLTKLVEAAGLKNVETYFTDPVIGAAQ | 0.0108 |
| HMDSISEQIYSIIKEEILLAKRKPGEQINPRKLADEFETSVMPIRDALNQLANEGLVIRKPRVGFFVR | 0.0655 |
| HMSAPAMTLDSIRSLLNDRDPWVVTQTVEWLVGLGPQVKTILETLTLESSDAARQAQNALDRINVRNYP | -0.155 |
| HMPAKDAEFTAFVRSATPTLTRTAYLLTGDRETASDLVQEAFVRTYLAWRRVRPEEATAYTRRVLVN | 0.0368 |
| HMVIIPNILNKYKGLAFRQLEQVGLKIGDTIYEPNIQRDAVLRMQINGRSVQPGDQVMRFSVVDLVIG | -3.21 |
| HMSDNHYLLEIFLADLKSDEKFIRELAIFQLHHHIESDKVRAELKAAAETESDPYLKGMIESLLSSTS | -0.943 |
| HMAVSGRMMVYEYIRQQMREGSLLPGSVLDLPAISHKLGISNTPLRDSLIRLEAEGYLTIYPRSKVVIN | -2.87 |
| HMFNVKAYEKAVKSYITKRKPLGEALDEEIMDELSVKFGIVDDALEDLFKQIQDAGISIVDKDGNPSPLAL | -0.619 |
| HMVRQKYKSNFITVGDKSLTIHDWAQRLNLSQYALRNRYKEFGKEWVEKAIKTILETGDNTHIYK | -0.847 |
| HMKNESLMLPRDIDYSRVHGLSNEAIQKLQDALPQSLGQASRIEGITPATLSLLLLYLKKNNKRI | -0.00929 |
| HMAKDSQSADVLQAIFDGSKVLNGLALDQDMRWDLINGLVMSGRLGVEAIEAEAAKLAKLVEELEFR | -0.892 |
| HMAGISQGLAENVERRITTLLREQKEVPVHDIDFPGISRETVGQVLHQMVQEEKLLLDDGMISLSPNQ | 0.143 |
| HMAPTPAGNLRSLKSEIVNYTRQSSTAYVYTFKDLSSGELYTARASRYYAAAGDTAYISTAAGAITDM | 0.0171 |
| HMRFTVSDKMDMLLKSLSAGQSMPFKSLFASASTKSEVIVTFLALLELMKLNQFVVWQDQILGEIEIERR | -0.554 |
| HMSKTDYKILYSDLNREDAKQLSLLLEDKKIPYQTSEDGKTIKIPEGMVNRFRMEVATMGVNF | 0.00779 |
| HMRFMRVSQSKSKNSTSLYIIESVYTKDNKHTTRIVKKLGTVEELSKEHEDPLAWAKEVAKQMTEEAEQN | -0.347 |
| HMAPEPFIVQITASSLNVRKGPGTSYAVAQTVSKGQVFTIVQQQGGWGKLKSGAGWISLKYTAR | -1.36 |
| HMEVHLMPGTVLLREYESNEYRVTVTPEGFYDLNGKVFKSLSAVARHITGVNWSGPRFFGVEP | -2.08 |

| Sequence | soluble fraction (log2) |
| --- | --- |
| HMHNQIGDKIRELRTRSNLTQADLGKLVGVSMQAVSKWERGGTPDIDVLLSVAKYFNISLDEMVGRT | -1.08 |
| HMTDYVPTIGTKISKDFGSKGYFEGEVVSGPHNVTVEGDNMVVWKVQYEDGDREEMTASEIAHWKA | -0.105 |
| HMNPETPAQQAVRKRLIVSVQFYRRLKDTPLKAVWQVAARDTLVNGYNLFLKRNIHAFNDRTLSTPSALS | -0.0672 |
| HMSEEAMVSNFRQQEILELARKDGKVTVDGLAELYDVTVQTIRRDLSDLADSGRLKRVHGGAVVPS | 0.262 |
| HMRKGDDRLRAQVDEYISKQGNNTFNYKQVAHAINATSPISQRAVALYLAELAFDGDLLETAPGRYKSPSR | 0.0382 |
| HMEIHIGSLIKEKMEERGLSVSDFAHALHYERTNIYKIFKRSSIDVDLLLRISEVLAYDFLREVYL | -2.63 |
| HMFAATGTVNTEGSSLRLRAEASTSSSVLKQLSHGTQVDVLSGLVDGWYQVSYKGTTGYVSGEYLTVTE | -0.451 |
| HMRHEDLSPAQKAAALVVAVGSENAAQVLRHLSEEEVEILAGEVARLGEVDPDVVDSVMREVYEQMMGH | -0.423 |
| HMYQPLRDVIFETLRKAIVSGDIKPGERLMEVSLANQMGVSRTPVREAIRRLEAEGLVTMTPRKGTHVAE | -0.399 |
| HMDVAAQITYAMRTMGVAPIPRNYELFYEAYIGSNPALTKELAALGSKATQEELDELGQQYF | -1.93 |
| HMTGPSYTTRRVEAAETMMEFLRTFPQAAPFIGDLYVKAQDWPLGEEIGDRLKKMLPPQLQE | -0.519 |
| HMEDKQRRMGELVALLNRAAYAYYTKDEPIMADVQYDRLYDELLSLEKETGVQMADSPTHRV | -0.173 |
| HMEQQSIYLENRERMTINQVIDVDAFDEETLWANLKEGAVEISGSGLHIEKLDLAEGVLIVSGIIRAFAYV | -0.647 |
| HMPELFLFNPDTASAATFQALGFSARQAGVLIHFREALGGRFGSVEQFSKSYVVDSATLERLRPYMVF | -3.63 |
| HMDDLTTASIKQQLKALIDEENKNKPLSDQKLTDALKAQGIDISRRTVAKYREAMNIPGSSKRKRF | 0.0936 |
| HMFKYRELLDWAKNRFDDLEVSIAPKALALLVESIGTDLRLLDSEIQKLSMYKPLEMISTNDVEDLVA | -0.357 |
| HMDKVVGSAGDVTSRITANSGEVKIDGQIWQARSYDETIAIEAGEKIEVFDLDGITLIVYPI | -0.604 |
| HMHSESAAHQRTSVELFARIPETGNLQSAQRHFDVINQFGRFPHRNKILQRPSSEQEEAFLRQPGSG | 0.0792 |
| HMRREKVLIKLAENLASKVLRTKKSIELEPMTPYERKVIHTTIENISGVKSWSEGENLQRHLIVALDE | -1.3 |
| HMSYANVEWRDFLNSLDEKYRIVVILYYVQGFKTREIAEILQINQSTVRGRLAKAREKLEQQYN | -1.46 |
| HMGKPPNNRIHRAKRDYALNLVKEHYPDFGPTLAAEKLAEHHGFTVSRETLRKWMIEDGIWLSRKQRR | -0.123 |
| HMDGEITLYKVVGYIKASDFDDKKNGFVIADDYITKRQAEDTMYEWKRKKTYPYLEIKEYKGKDPYK | 0.295 |
| HMTSTEQQIEQFIGTLVSLGGSAGNQRLLEALGWQDSIYQRVKQQLIDDGRIRPGRGRGGSVVLAE | -0.074 |
